The text below walks through data of publication PMC7494997.

To fix the notation:
B1: yeast-displayed mVISTA E124A (protein)
chain: FKVTTPYSLYVCPEGQNATLTCRILGPVSKGHDVTIYKTWYLSSRGEVQMCKEHRPIRNFTLQHLQHHGSHLKANASHDQPQKHGLELASDHHGNFSITLRNVTPRDSGLYCCLVIELKNHHPAQRFYGSMELQVQAGKGSGSTCMASNEQDSDSITAA
B2: yeast-displayed mVISTA I36A (protein)
chain: FKVTTPYSLYVCPEGQNATLTCRILGPVSKGHDVTAYKTWYLSSRGEVQMCKEHRPIRNFTLQHLQHHGSHLKANASHDQPQKHGLELASDHHGNFSITLRNVTPRDSGLYCCLVIELKNHHPEQRFYGSMELQVQAGKGSGSTCMASNEQDSDSITAA
B3: yeast-displayed mVISTA H121A (protein)
chain: FKVTTPYSLYVCPEGQNATLTCRILGPVSKGHDVTIYKTWYLSSRGEVQMCKEHRPIRNFTLQHLQHHGSHLKANASHDQPQKHGLELASDHHGNFSITLRNVTPRDSGLYCCLVIELKNAHPEQRFYGSMELQVQAGKGSGSTCMASNEQDSDSITAA
B4: yeast-displayed mVISTA K38A (protein)
chain: FKVTTPYSLYVCPEGQNATLTCRILGPVSKGHDVTIYATWYLSSRGEVQMCKEHRPIRNFTLQHLQHHGSHLKANASHDQPQKHGLELASDHHGNFSITLRNVTPRDSGLYCCLVIELKNHHPEQRFYGSMELQVQAGKGSGSTCMASNEQDSDSITAA

Chain of SG7 (chain, as listed by the source, chain 1 of 2): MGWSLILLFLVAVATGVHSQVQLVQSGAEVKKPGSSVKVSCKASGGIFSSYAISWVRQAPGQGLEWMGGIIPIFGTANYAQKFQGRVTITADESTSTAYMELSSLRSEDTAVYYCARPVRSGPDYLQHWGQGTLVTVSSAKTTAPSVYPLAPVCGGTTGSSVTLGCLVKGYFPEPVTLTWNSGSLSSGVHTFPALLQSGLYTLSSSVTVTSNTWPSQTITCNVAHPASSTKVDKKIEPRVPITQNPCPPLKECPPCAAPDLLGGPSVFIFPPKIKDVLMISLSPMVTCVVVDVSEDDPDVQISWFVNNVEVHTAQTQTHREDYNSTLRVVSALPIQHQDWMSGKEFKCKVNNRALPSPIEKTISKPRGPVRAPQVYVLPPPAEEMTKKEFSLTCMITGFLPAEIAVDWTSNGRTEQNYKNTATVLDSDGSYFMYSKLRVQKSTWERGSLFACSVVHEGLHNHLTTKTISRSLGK
Chain of SG7 (chain, as listed by the source, chain 2 of 2): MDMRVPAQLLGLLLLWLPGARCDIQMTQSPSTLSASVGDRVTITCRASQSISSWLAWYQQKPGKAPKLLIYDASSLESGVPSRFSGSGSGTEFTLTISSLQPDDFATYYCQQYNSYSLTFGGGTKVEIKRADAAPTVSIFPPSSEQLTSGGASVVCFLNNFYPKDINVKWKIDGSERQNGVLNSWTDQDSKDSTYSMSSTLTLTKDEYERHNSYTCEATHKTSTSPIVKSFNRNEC

This assay concerns the target SG7. Put plainly: flow cytometry on yeast-displayed VISTA. The settings on record: chain shown with the change; 4 nM SG7; parent: est. 100; read off a plot. (In flow cytometry, cells or beads pass a laser one at a time.)
Turning to B1, the percent of parent turned out to be 9 % WT.
Next, B2: 13 % WT; B3: 1 % WT; B4: 63 % WT.
